Measured values: publication PMC4861311

Columns and labels:
[1] = target: bacteriophage P22 coat protein (Salmonella typhimurium bacteriophage P22) (UniProt P26747); assay: SEC-MALS
[2] = target: CelB tetramer (Pyrococcus β-glucosidase CelB, isolated sample imaged by cryo-EM) (Pyrococcus furiosus) (UniProt Q51723); assay: cryo-EM structure

UniProt P26747, sequence (P26747 whole entry): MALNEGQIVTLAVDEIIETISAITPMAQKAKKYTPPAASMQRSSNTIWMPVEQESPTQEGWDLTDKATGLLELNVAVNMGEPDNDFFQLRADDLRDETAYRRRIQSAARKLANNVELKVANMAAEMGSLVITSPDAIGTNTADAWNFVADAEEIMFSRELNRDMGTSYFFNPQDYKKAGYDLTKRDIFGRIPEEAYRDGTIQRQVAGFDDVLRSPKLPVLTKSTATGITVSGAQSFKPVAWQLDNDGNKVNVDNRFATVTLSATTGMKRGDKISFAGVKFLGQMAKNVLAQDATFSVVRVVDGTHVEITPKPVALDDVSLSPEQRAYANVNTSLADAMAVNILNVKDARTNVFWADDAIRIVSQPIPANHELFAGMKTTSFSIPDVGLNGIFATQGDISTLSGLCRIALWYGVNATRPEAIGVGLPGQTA

Row | #Cargo/capsid [1] | stoichiometry N [2] | Substance
1 | 224 cargo/capsid | – | EGFP fused to N-terminal-truncated P22 scaffold protein
2 | – | 4 | CelB tetramer (Pyrococcus β-glucosidase CelB, isolated sample imaged by cryo-EM) (from UniProt Q51723 2-472) (enzyme)
